Changes are numbered by the printed parent chain.
Legend:
Experiment in all cases: MST
Details in all cases: 25 mM Tris-HCl pH 8.0, 150 mM NaCl (150 mM LiCl for Sc1 LiCl), 1 mM DTT, 0.1 mg/ml BSA; 20 nM Cy5-RNA; about 2 min incubation; temperature not stated; low values mean tight binding
[1] = molecular target: T1, AtGRP7StoG S132G;S139G (Arabidopsis thaliana) (UniProt Q03250)
T1 sequence: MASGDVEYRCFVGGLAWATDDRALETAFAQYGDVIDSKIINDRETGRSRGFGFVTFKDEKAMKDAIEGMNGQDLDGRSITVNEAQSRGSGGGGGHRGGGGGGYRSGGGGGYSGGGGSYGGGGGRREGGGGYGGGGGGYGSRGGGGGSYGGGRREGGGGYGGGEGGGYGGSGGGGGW

[2] = molecular target: T2, AtGRP7YtoG Y103G;Y111G;Y118G;Y131G;Y138G;Y148G;Y159G;Y167G (Arabidopsis thaliana) (UniProt Q03250)
T2 sequence: T1 sequence with Y103G, Y111G, Y118G, Y131G, G132S, Y138G, G139S, Y148G, Y159G, Y167G

[3] = molecular target: T3, AtGRP7 (Arabidopsis thaliana) (UniProt Q03250)
T3 sequence: T1 sequence with G132S, G139S

[4] = molecular target: T4, AtBnGRP7 (Arabidopsis thaliana / Brassica napus chimera) (UniProt Q03250)
T4 sequence: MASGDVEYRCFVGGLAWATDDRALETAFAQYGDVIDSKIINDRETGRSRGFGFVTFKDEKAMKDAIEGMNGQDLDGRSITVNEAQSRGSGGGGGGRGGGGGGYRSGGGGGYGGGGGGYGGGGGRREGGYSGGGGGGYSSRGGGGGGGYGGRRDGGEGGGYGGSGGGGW

BnGRP7 (Brassica napus) = molecular target: T5, BnGRP7 (Brassica napus) (UniProt A0A078J5Z4)
T5 sequence: T4 sequence with G4P, A29S, Y31F, I35L, A61S

[5] = molecular target: T6, AtGRP7StoE S132E;S139E (Arabidopsis thaliana) (UniProt Q03250)
T6 sequence: T1 sequence with G132E, G139E

[6] = molecular target: T7, AtGRP7YtoE Y103E;Y111E;Y118E;Y131E;Y138E;Y148E;Y159E;Y167E (Arabidopsis thaliana) (UniProt Q03250)
T7 sequence: T1 sequence with Y103E, Y111E, Y118E, Y131E, G132S, Y138E, G139S, Y148E, Y159E, Y167E

[7] = molecular target: T8, AtGRP7short (Arabidopsis thaliana) (UniProt Q03250)
T8 sequence: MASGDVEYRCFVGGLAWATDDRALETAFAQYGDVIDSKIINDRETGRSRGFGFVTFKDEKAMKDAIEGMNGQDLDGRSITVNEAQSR

| Substance | Kd [1] | Kd [2] | Kd [3] | Kd [4] | Kd (BnGRP7 (Brassica napus)) | Kd [5] | Kd [6] | Kd [7] |
| --- | --- | --- | --- | --- | --- | --- | --- | --- |
| GGAUGGCGAUGUCUUUCUCAGGAGCUGUUCUCACUGGUAUGGCUUCUUCUUUCCACAGCGGAGCCAAGCAGAGCAGCUUCGGCGCUGUCAGAGUCGGCCAGAAAACUCAGUUCGUCGUCGUUUCUCAACGCAAGAAGUCGUUGAUCUACGCCGCUAAAGGUGACGGCAACAUCCUCGAUGACCUCAACGAGGCCACAAAGAAAGCUUCAGAUUUCGUGACGGAUAAAACAAAAGAGGCAUUAGCAGAUGGUGAGAAAGCGAAAGACUACGUUGUUGAAAAAAACAGUGAAACCGCAGAUACAUUGGGUAAAGAAGCUGAGAAAGCUGCGGCGUAUGUGGAGGAGAAAGGAAAAGAAGCCGCAAACAAGGCGGCAGAGUUCGCGGAGGGUAAAGCAGGAGAGGCUAAGGAUGCCACAAAGUAG [AtCOR15A] | 2300 nM | 2700 nM | 62 nM | 548 nM | 153 nM | 2470 nM |  |  |
| GGCUCGAAACGAGGAGAAAAAAUCAUUAGUUAUCGAAAAUGCUCACAUGAUGUGGGCCUAACCACUAACCCAAUUAACCACACAUCUUAAUCAGAGUAAGUUGAAACAAAUCUUUCAGCAAACCCUAGAAAACAUGUUUAACCCUAGUUAUUACGUCACACCUGUUCUAUAAAUUAAGGCUGCGUCUUAUCACCUCAAAUCACAUAAGUCUCUCUCUUACAUUUUGAAACCCUAAUUUCUCUUCUUUUCCCCAAAAAAAAAUGUCUGAAGUUGAGUACCGGUGCUUUGUCGGCGGCCUUGCCUGGGCCACCAAUGAUGAAGAUCUUCAAAGGACGUUCUCACAGUUCGGCGACGUUAUCGAUUCUAAGGUCUGUUACACGAGAGAUCGGUCUCCCGGAUCGAGCCGAUUCCGAUGAUUCUGAUCCUCGACGGAUCUGAUUCCGAUCUGUUUCUCUGUUACUUGAUUCGAUUACUGUUACUAUGUUCUCUCUCGUUCUUUGUUACUGUUACUUAAUUUGUCCCAUCGGUACGUUCAUCUUCCUGCUUCUAUGAGCUCGGAGAUCGAUCGAUUUUUGCUUUAUAUUCAUCGCUUUGUUUUAUAUUCCUUCCACGAUUGUUUUUGCUGAUGUGUAUGAUUUUGUUUGUUUACAGAUCAUUAACGACCGCGAGAGUGGAAGAUCAAGGGGAUUCGGAUUCGUCACCUUCAAGGACGAGAAAGCCAUGAGGGAUGCGAUUGAAGAGAUGAACGGUAAAGAGCUCGAUGGACGUGUCAUCACCGUGAACGAGGCUCAGUCGAGAGGUAGCGGCGGUGGCGGAGGAGGCCGUGGUGGAAGCGGUGGUGGUUACCGCAGCGGAGGCGGUGGUGGAUACUCAGGAGGCGGUGGCGGCGGAUACUCAGGAGGAGGCGGUGGUGGUUACGAGAGACGUAGCGGAGGUUACGGAUCUGGUGGAGGCGGUGGUGGCCGAGGAUACGGUGGUGGUGGACGCCGUGAGGGAGGUGGCUACGGAGGCGGUGAUGGUGGAAGUUACGGAGGCGGUGGUGGCGGCUGGUAAUCAAAGAUAGAGUUGUUUGCGUGCUGCUGCUCUGUUUUUGGUUUAGAUUUGGUUUUGUGUCACCACUUCUGGUUUGGUUAUCGUUCGUUUGGUUUACUUUUUUGAUGAAACAGUUUCGUUUAAGUCUUCUUUGUCUGGAACGAAAUGUUAAUUCGCGUGUUGUUUACUAAAUUUAUAACGUUUCCUUUUAACCAGAUUCGAGAUUUUCCCUCAAAUAAUUUAUCUUGUUAGACACAUGUAUUUAAUCGAACAGCAGCUAAAGGAUUCAAAUGAUUUUCUUAUCAAUAAUUACUAUAGUUUGAAAUUGAUUAGUUCUUUAACUUUUGACCUACCAAUA [AtGRP8] | 1370 nM | 3390 nM | 156 nM | 312 nM | 502 nM | 923 nM |  |  |
| GGAUGUCUGAAGUUGAGUACCGGUGCUUUGUCGGCGGCCUUGCCUGGGCCACCAAUGAUGAAGAUCUUCAAAGGACGUUCUCACAGUUCGGCGACGUUAUCGAUUCUAAGAUCAUUAACGACCGCGAGAGUGGAAGAUCAAGGGGAUUCGGAUUCGUCACCUUCAAGGACGAGAAAGCCAUGAGGGAUGCGAUUGAAGAGAUGAACGGUAAAGAGCUCGAUGGACGUGUCAUCACCGUGAACGAGGCUCAGUCGAGAGGUAGCGGCGGUGGCGGAGGAGGCCGUGGUGGAAGCGGUGGUGGUUACCGCAGCGGAGGCGGUGGUGGAUACUCAGGAGGCGGUGGCGGCGGAUACUCAGGAGGAGGCGGUGGUGGUUACGAGAGACGUAGCGGAGGUUACGGAUCUGGUGGAGGCGGUGGUGGCCGAGGAUACGGUGGUGGUGGACGCCGUGAGGGAGGUGGCUACGGAGGCGGUGAUGGUGGAAGUUACGGAGGCGGUGGUGGCGGCUGGUAA [AtGRP8] | 493 nM | 381 nM | 177 nM | 135 nM | 9160 nM | 937 nM | 2790 nM |  |
| UCUUGUUCUGGUUUGGUUUUGAAC [Bn-miRnovel2] | 22 nM | 41 nM | 260 nM | 35 nM | 5.8 nM | 29 nM | 267 nM | 4490 nM |
| UGGAGAAGCAGGGCACGUGCA [miR164] |  |  | 42 nM |  | 21 nM |  |  | 5930 nM |
| AtCOR15A | 2230 nM | 3750 nM | 224 nM | 741 nM | 323 nM | 738 nM | 23400 nM |  |
| GGAUUUGCGCAUUAAACCAAAAAGUGUCACGUGAUAUGUCCCCAACCACUACGAAUUUUAACUACAGAUUUAACCAUGGUUAAACCAGAAUUCACGUAAACCGACUCUAAACCUAGAAAAUAUCUAAACCUUGGUUAAUAUCUCAGCCCCCUUAUAAAUAACGAGACUUCGUCUACAUCGUUCUACACAUCUCACUGCUCACUACUCUCACUGUAAUCCCUUAGAUCUUCUUUUCAAAUUUCAAUGGCGUCCGGUGAUGUUGAGUAUCGGUGCUUCGUUGGAGGUCUAGCAUGGGCCACUGAUGACAGAGCUCUUGAGACUGCCUUCGCUCAAUACGGCGACGUUAUUGAUUCCAAGGUCUGUUACACGCCGAGAUCGGACUCCGAGUGAUAUCGAUGAUCUCAUCCUCGACGGAUCUGUUCCGAUCUUGUGUUUCUCUGUUACUUGAUUCGAUUACUCUGUUACUAUUCUCGUUCUUUGUUACUACUACUACUACUACUGUUACUUGUAUUUUCCCAAAUCGGUACGUUCAUCUUCCUGCUUCUGUGAGCCCGGAGAUCGAUCGGAUUUUUUUGUAUUUUGUAUAUUUGUUGUAGAUCUAAAUGCUUUUGUUCAGUUUUGUUGGAUUGUUUUGCUGAUCUGGUUUUUGUAUUAUUUGGAUAACAGAUCAUUAACGAUCGUGAGACUGGAAGAUCAAGGGGAUUCGGAUUCGUCACCUUCAAGGAUGAGAAAGCCAUGAAGGAUGCGAUUGAGGGAAUGAACGGACAAGAUCUCGAUGGCCGUAGCAUCACUGUUAACGAGGCUCAGUCACGAGGAAGCGGUGGCGGCGGAGGCCACCGUGGAGGUGGUGGCGGUGGAUACCGCAGCGGCGGUGGUGGAGGUUACUCCGGUGGAGGUGGUAGCUACGGAGGUGGCGGCGGUAGACGCGAGGGUGGAGGAGGAUACAGCGGCGGCGGCGGCGGUUACUCCUCAAGAGGUGGUGGUGGCGGAAGCUACGGUGGUGGAAGACGUGAGGGAGGAGGAGGAUACGGUGGUGGUGAAGGAGGAGGUUACGGAGGAAGCGGUGGUGGUGGAGGAUGGUAAUUCCUUUAAUUAGGUUUGGGAUUACCAAUGAAUGUUCUCUCUCUCGCUUGUUAUGCUUCUACUUGGUUUUGUGUGUUCUCUAUUUUGUUCUGGUUCUGCUUUAGAUUUGAUGUAACAGUUCGUGAUUAGGUAUUUUGGUAUCUGGAAACGUAAUGUUAAGUCACUUGUCAUUCUCUAAAUAACAAAUUUCUUCGGAGAUAUUAUCUCUGUUGAUUGAUUCUAUCAUCUAAAUUUCGGAAAUGCUAAUCGGAUACCGGAAUGGUGCCUUUGUUACGAUUGAGUUACUUACAUCACUGAUACAACAAUGAAGUACUUACUGAUUAUCUUUAUACCAUUCACCACACUACCUUUGAUAUUCAACAAUGAAGUAGAAACCUAUUUGGUUCAUUCGCA [AtGRP7] | 606 nM | 19300 nM | 364 nM | 172 nM | 16200 nM | 1790 nM | 21300 nM |  |

From paper PMC11239674
